Measured values taken from publication PMC8471065.

B1: TBA-ppg-Cy5 (structured_DNA)
DNA: GGTTGGTGTGGTTGG
modifications: 3'-propargyl linker
B2: 3Q-ppg-Cy5 (Cy5-3Q) (structured_DNA)
DNA: GGGTTGGGTGTGGGTTGGG
modifications: 3'-propargyl linker

Assays:
[1] = target: T1, thrombin (alpha-thrombin not specified) (Homo sapiens (human plasma), UniProt P00734;P00734 328-363;364-622); experiment: EMSA; K+; only the lower (folded) band bound; 1 uM Cy5-aptamer (10 uL) annealed in 10 mM sodium cacodylate pH 7.2, 100 mM KCl in D2O; 24 pmol thrombin (2.4 eq), 30 min at 25 C; 12% native PAGE, 1x TBE + 10
[2] = target: T1, thrombin (alpha-thrombin not specified); experiment: EMSA; K+; band at start of lane (multi-species complex), no clotting inhibition; 1 uM Cy5-aptamer (10 uL) annealed in 10 mM sodium cacodylate pH 7.2, 100 mM KCl in D2O; 24 pmol thrombin (2.4 eq), 30 min at 25 C; 12% native PAGE, 1x TBE + 10

Row | Binder | binding result [1] | binding result [2]
1 | B1 | binds | –
2 | B2 | – | binds
